Test results taken from patent US7071301.

How the values were obtained:
Experiment in all cases: cell-based or functional assay
[1] = target: Chimera I (mouse-human chimeric receptor, first part from ERR) (mouse; human)
[2] = target: Chimera II (mouse-human chimeric receptor, last part from ERR) (human; mouse)
[3] = target: Chimera III (H13 with NcoI-NcoI fragment from ERR) (human / mouse)
ERR Mutant 1 (mouse) = ERR Mutant 1 (mouse) (UniProt Q09143)
ERR Mutant 10 (mouse) = ERR Mutant 10 (mouse) (UniProt Q09143)
ERR Mutant 11 (mouse) = ERR Mutant 11 (mouse) (UniProt Q09143)
ERR Mutant 2 (mouse) = ERR Mutant 2 (mouse) (UniProt Q09143)
ERR Mutant 3 (mouse) = ERR Mutant 3 (mouse) (UniProt Q09143)
ERR Mutant 4 (mouse) = ERR Mutant 4 (mouse) (UniProt Q09143)
ERR Mutant 5 (mouse) = ERR Mutant 5 (mouse) (UniProt Q09143)
ERR Mutant 6 (mouse) = ERR Mutant 6 (mouse) (UniProt Q09143)
ERR Mutant 7 (mouse) = ERR Mutant 7 (mouse) (UniProt Q09143)
ERR Mutant 8 (mouse) = ERR Mutant 8 (mouse) (UniProt Q09143)
ERR Mutant 9 (mouse) = ERR Mutant 9 (mouse) (UniProt Q09143)
human H13 (human) = human H13 (human) (UniProt P30825)
UniProt P30825, sequence (P30825 other isoform, or with tags, fused parts or gaps): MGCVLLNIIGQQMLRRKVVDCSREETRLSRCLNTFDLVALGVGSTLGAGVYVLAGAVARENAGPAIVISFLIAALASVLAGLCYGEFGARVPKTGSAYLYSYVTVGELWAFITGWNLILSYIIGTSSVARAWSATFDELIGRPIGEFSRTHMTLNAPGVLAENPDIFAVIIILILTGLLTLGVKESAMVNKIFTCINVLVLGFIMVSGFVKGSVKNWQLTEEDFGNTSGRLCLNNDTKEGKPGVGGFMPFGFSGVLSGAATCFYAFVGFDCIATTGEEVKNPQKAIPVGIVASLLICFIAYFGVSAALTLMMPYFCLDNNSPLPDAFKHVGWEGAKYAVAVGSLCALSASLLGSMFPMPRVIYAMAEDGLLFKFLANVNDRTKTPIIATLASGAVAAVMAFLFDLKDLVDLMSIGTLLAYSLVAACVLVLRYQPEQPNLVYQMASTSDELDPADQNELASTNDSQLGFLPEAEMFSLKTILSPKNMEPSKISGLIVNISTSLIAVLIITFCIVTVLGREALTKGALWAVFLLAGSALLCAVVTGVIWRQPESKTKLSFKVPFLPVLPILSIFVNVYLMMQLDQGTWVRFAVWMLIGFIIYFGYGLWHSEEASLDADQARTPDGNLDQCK

[4] = target: murine ecotropic retroviral receptor (ERR) (mouse) (UniProt Q09143)

Substance: recombinant MuLV-E, ψCRE/BAG virions (from UniProt P03385 34-469)
- numbers of G418-resistant colonies [1]: 1000 colonies
- numbers of G418-resistant colonies [2]: 0 colonies
- numbers of G418-resistant colonies [3]: 1000 colonies
- colonies (ERR Mutant 1 (mouse)): 500 colonies
- colonies (ERR Mutant 10 (mouse)): 500 colonies
- colonies (ERR Mutant 11 (mouse)): 500 colonies
- colonies (ERR Mutant 2 (mouse)): 500 colonies
- colonies (ERR Mutant 3 (mouse)): 500 colonies
- colonies (ERR Mutant 4 (mouse)): 500 colonies
- colonies (ERR Mutant 5 (mouse)): 500 colonies
- colonies (ERR Mutant 6 (mouse)): 500 colonies
- colonies (ERR Mutant 7 (mouse)): 0 colonies
- colonies (ERR Mutant 8 (mouse)): 500 colonies
- colonies (ERR Mutant 9 (mouse)): 500 colonies
- numbers of G418-resistant colonies (human H13 (human)): 0 colonies
- numbers of G418-resistant colonies [4]: > 1000 colonies
